This note sets out measurements from patent CN111434682A.

Assay [1] deals with H7N9病毒的HA蛋白(购自ACROBiosystems) (H7N9 influenza virus). Kind of assay: ELISA, HA coated at 100 ng/well, negative control, anti-human IgG-HRP. (In general: An ELISA detects its analyte on a solid surface through an enzyme-linked reagent.)
Assay [2] has the same target.
For assay [3] the target is unchanged. The source holds these as a separate data set.
The target of assay [4] is H7N9病毒 A/Anhui/1/2013 (H7N9 influenza virus A/Anhui/1/2013). The assay can be described thus: cell-based or functional assay.

Values joined by “and” are separate entries in the source; they are usually repeats but may differ in a detail not shown here. Equal values may be shown once. Read-outs that look alike come from different tables or passages of the source.

With 阴性对照 (negative control of the ELISA), in assay [1], the 450nm absorbance is 0.0675 OD450 and 0.0554 OD450.

B1: 抗H7N9全人源单克隆抗体7T33 (antibody, V domains shown)
VH: QVQLVESGAEVKKPGASVKVSCKASGTIFYSTEINWVRQATGQGLEWMGWMNPESGEYGFAQKFQGRVTMTRNTSITTAYMELSSLTSEDTAVYYCAYGNAECSAGGSCTNWFGEPWGQGTLVTVSS
VL: SSELTQDPAVSVALGQTVRITCQGDRLRSTTASWYQQKPGQAPVLVIYGKNNRPSGIPDRFSGSSSGNTASLTITGAQAEDEADYYCNSREYSGTHLVFGGGTKLTVLV
As for B1, the 450nm absorbance in assay [2] was 1.53 OD450 and 1.86 OD450 and 1.8 OD450. Also, in assay [3], the dissociation constant Kd (usually the constant that tells how readily two partners part at equilibrium) was 5.43 nM. Also, the IC50, micro-neutralisation ELISA on MDCK cells infected with H7N9 virus in assay [4] is 12.8 µg/mL.
